# Data as given in publication PMC9200632, “Development of spirulina for the manufacture and oral delivery of protein therapeutics” (Nature Biotechnology, 2022).
# T1: MBP–FlaA (C. jejuni flagellin FlaA, amino acids 177–482) (Campylobacter jejuni, flagellin A …, biotinylated (EZ-Link NGS-PEG4-Biotin kit) in the BLI)
# T1 construct: The biotinylated form was used for BLI; The ELISA methods name the coating protein only as recombinant FlaA; also called recombinant FlaA; recombinant C. jejuni flagellin; source: E. coli BL-21(DE3), purified (Amylose Resin); not shown: MBP, N-terminal, kept
# T1 chain: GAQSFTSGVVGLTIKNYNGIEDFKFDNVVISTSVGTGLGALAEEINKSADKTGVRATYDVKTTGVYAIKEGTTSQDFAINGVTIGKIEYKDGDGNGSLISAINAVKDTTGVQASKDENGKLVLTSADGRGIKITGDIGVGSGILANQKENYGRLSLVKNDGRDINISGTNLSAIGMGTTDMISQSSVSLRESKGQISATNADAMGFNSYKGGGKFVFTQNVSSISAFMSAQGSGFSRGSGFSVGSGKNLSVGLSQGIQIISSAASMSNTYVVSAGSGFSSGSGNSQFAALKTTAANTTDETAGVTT
# What was measured:
# [1] = target: T1, MBP–FlaA (C. jejuni flagellin FlaA, …); assay: BLI; Octet Red96e; biotinylated MBP–FlaA loaded at 100 nM on streptavidin biosensors; purified aa682 from 1 μM to 10 nM in PBS with 1% BSA and 0.05% Tween-20; association 20 s, dissociation 140 s; global fit, 1:1 model; settings: both partners purified
# [2] = target: T2, RBD antigen (SARS-CoV-2 receptor-binding domain) (SARS-CoV-2, variant  …, UniProt P0DTC2); assay: ELISA
# T2 construct: source: provided by R. Strong (Fred Hutchinson Cancer Institute)
Binder,EC50 ([2]; both partners purified),EC50 ([2]; one partner purified),also measured
"aa682 (VHH, N-terminal methionine removed (intact mass); Monovalent VHH-MBP fusion, predicted MW 54.8 kDa) VHH: QVQLVESGGGLVQAGGSLRVSCTASVSTFSINALGWYRQAPGKARELVAAIGSDGTVYYTDSVKGRFTISRDNAKNTVSLQMSSLKPEDTAVYYCNAAGKRIGSDGSIWFAVASFGSWGQGTQVTVSS",,,Kd [1]: 53 nM
"PP622, monomeric RBD-binding VHH (VHH-72), E. coli-expressed and purified (VHH, also called monomeric VHH; source: E. coli, purified (IMAC)) VHH: QVQLQESGGGLVQAGGSLRLSCAASGRTFSEYAMGWFRQAPGKEREFVATISWSGGSTYYTRSVKGRFTISRDNAKNTVYLQMNSLKPDDTAVYYCAAAGLGTVVSEWDYDYDYWGQGTQVTVSS",18.3 nM,,
"monomeric RBD-binding VHH (VHH-72) in extract of spirulina strain SP1464 (VHH, also called monomeric VHH, extract; source: spirulina strain SP1464, in extract) VHH: QVQLQESGGGLVQAGGSLRLSCAASGRTFSEYAMGWFRQAPGKEREFVATISWSGGSTYYTRSVKGRFTISRDNAKNTVYLQMNSLKPDDTAVYYCAAAGLGTVVSEWDYDYDYWGQGTQVTVSS",,52.3 nM,
"dimeric RBD-binding VHH (VHH-72 on the 5HVZ scaffold) in extract of spirulina strain SP1477 (VHH, as the dimerization motif of m5, named only by its PDB entry 5HVZ; also called dimeric VHH, extracted form; source: spirulina strain SP1477, in extract) VHH: QVQLQESGGGLVQAGGSLRLSCAASGRTFSEYAMGWFRQAPGKEREFVATISWSGGSTYYTRSVKGRFTISRDNAKNTVYLQMNSLKPDDTAVYYCAAAGLGTVVSEWDYDYDYWGQGTQVTVSS",,1.29 nM,
"PP661, dimeric RBD-binding VHH (VHH-72 on the 5HVZ scaffold), E. coli-expressed and purified (VHH, also called dimeric VHH; source: E. coli, purified (IMAC)) VHH: QVQLQESGGGLVQAGGSLRLSCAASGRTFSEYAMGWFRQAPGKEREFVATISWSGGSTYYTRSVKGRFTISRDNAKNTVYLQMNSLKPDDTAVYYCAAAGLGTVVSEWDYDYDYWGQGTQVTVSS",0.32 nM,,
